In the supplement of paper PMC5998384:

Legend:
HeLa Kyoto [1] = test: solubility in G1/S (NP-40 vs SDS abundance) (log2 ratio); higher = more soluble; conditions: cell cycle stage: G1/S
HeLa Kyoto [2] = test: melting temperature (median over replicates), in situ; higher = more thermally stable
HeLa Kyoto [3] = test: solubility change mitosis vs G1/S (difference of NP-40 vs SDS log2 ratios) (log2 ratio difference); higher = more soluble in mitosis
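Wherever melting temperature (median over replicates), in situ is given: HeLa Kyoto cells synchronized by double thymidine or nocodazole block, proteins quantified by TMT10plex mass spectrometry, three independent biological replicates.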
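Wherever solubility change mitosis vs G1/S (difference of NP-40 vs SDS log2 ratios) is given: synchronized HeLa Kyoto cells (double thymidine block for G1/S, nocodazole release for mitosis), protein amounts in NP-40 versus SDS lysates quantified by mass spectrometry, three biological replicates.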
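Wherever solubility in G1/S (NP-40 vs SDS abundance) is given: HeLa Kyoto cells arrested at G1/S by double thymidine block, proteins quantified by TMT10plex mass spectrometry in mild NP-40 versus SDS extracts, three biological replicates.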

| Sequence | solubility in G1/S (log2) (HeLa Kyoto [1]) | melting temperature (HeLa Kyoto [2]; cell cycle stage: G1/S) [°C] | melting temperature (HeLa Kyoto [2]; cell cycle stage: mitosis) [°C] | solubility change mitosis (log2) (HeLa Kyoto [3]) |
| --- | --- | --- | --- | --- |
| MLRRVTVAAVCATRRKLCEAGRELAALWGIETRGRCEDSAAARPFPILAMPGRNKAKSTCSCPDLQPNGQDLGENSRVARLGADESEEEGRRGSLSNAGDPEIVKSPSDPKQYRYIKLQNGLQALLISDLSNMEGKTGNTTDDEEEEEVEEEEEDDDEDSGAEIEDDDEEGFDDEDEFDDEHDDDLDTEDNELEELEERAEARKKTTEKQSAAALCVGVGSFADPDDLPGLAHFLEHMVFMGSLKYPDENGFDAFLKKHGGSDNASTDCERTVFQFDVQRKYFKEALDRWAQFFIHPLMIRDAIDREVEAVDSEYQLARPSDANRKEMLFGSLARPGHPMGKFFWGNAETLKHEPRKNNIDTHARLREFWMRYYSSHYMTLVVQSKETLDTLEKWVTEIFSQIPNNGLPRPNFGHLTDPFDTPAFNKLYRVVPIRKIHALTITWALPPQQQHYRVKPLHYISWLVGHEGKGSILSFLRKKCWALALFGGNGETGFEQNSTYSVFSISITLTDEGYEHFYEVAYTVFQYLKMLQKLGPEKRIFEEIRKIEDNEFHYQEQTDPVEYVENMCENMQLYPLQDILTGDQLLFEYKPEVIGEALNQLVPQKANLVLLSGANEGKCDLKEKWFGTQYSIEDIENSWAELWNSNFELNPDLHLPAENKYIATDFTLKAFDCPETEYPVKIVNTPQGCLWYKKDNKFKIPKAYIRFHLISPLIQKSAANVVLFDIFVNILTHNLAEPAYEADVAQLEYKLVAGEHGLIIRVKGFNHKLPLLFQLIIDYLAEFNSTPAVFTMITEQLKKTYFNILIKPETLAKDVRLLILEYARWSMIDKYQALMDGLSLESLLSFVKEFKSQLFVEGLVQGNVTSTESMDFLKYVVDKLNFKPLEQEMPVQFQVVELPSGHHLCKVKALNKGDANSEVTVYYQSGTRSLREYTLMELLVMHMEEPCFDFLRTKQTLGYHVYPTCRNTSGILGFSVTVGTQATKYNSEVVDKKIEEFLSSFEEKIENLTEEAFNTQVTALIKLKECEDTHLGEEVDRNWNEVVTQQYLFDRLAHEIEALKSFSKSDLVNWFKAHRGPGSKMLSVHVVGYGKYELEEDGTPSSEDSNSSCEVMQLTYLPTSPLLADCIIPITDIRAFTTTLNLLPYHKIVK [NRD1] | 0.116 | 50.5 | 50.9 | -0.188 |
| MMFRDQVGILAGWFKGWNECEQTVALLSLLKRVTRTQARFLQLCLEHSLADCNDIHLLESEANSAAIVSQWQQESKEKVVSLLLSHLPLLQPGNTEAKSEYMRLLQKVLAYSIESNAFIEESRQLLSYALIHPATTLEDRNALALWLSHLEERLASGFRSRPEPSYHSRQGSDEWGGPAELGPGEAGPGWQDKPPRENGHVPFHPSSSVPPAINSIGSNANTGLPCQIHPSPLKRSMSLIPTSPQVPGEWPSPEELGARAAFTTPDHAPLSPQSSVASSGSEQTEEQGSSRNTFQEDGSGMKDVPSWLKSLRLHKYAALFSQMSYEEMMTLTEQHLESQNVTKGARHKIALSIQKLRERQSVLKSLEKDVLEGGNLRNALQELQQIIITPIKAYSVLQATVAAATTTPTAKDGAPGEPPLPGAEPPLAHPGTDKGTEAKDPPAVENYPPPPAPAPTDGSEPAPAPVADGDIPSQFTRVMGKVCTQLLVSRPDEENITSYLQLIEKCLTHEAFTETQKKRLLSWKQQVLKLLRTFPRKAALEMQNYRQQKGWAFGSNSLPIAGSVGMGVARRTQRQFPMPPRALPPGRMGLLSPSGIGGVSPRHALTSPSLGGQGRQNLWFANPGGSNSMPSQSRSSVQRTHSLPVHSSPQAILMFPPDCPVPGPDLEINPTLESLCLSMTEHALGDGTDKTSTI [SAMD4B] | 0.549 | 50.8 | 51.4 | -0.0818 |
| MMKFKPNQTRTYDREGFKKRAACLCFRSEQEDEVLLVSSSRYPDQWIVPGGGMEPEEEPGGAAVREVYEEAGVKGKLGRLLGIFENQDRKHRTYVYVLTVTEILEDWEDSVNIGRKREWFKVEDAIKVLQCHKPVHAEYLEKLKLGCSPANGNSTVPSLPDNNALFVTAAQTSGLPSSVR [NUDT4] | 0.505 | – | 49.3 | -0.0227 |
